For 79 sequences, switch fluorescence ratio results are on record in the supplement of paper PMC10126150.

± gives the standard deviation of the averaged measurements.

The data set has as its system ATP. The data set can be described thus: switch fluorescence ratio, 500 uM ATP over buffer (Cy3 cluster intensity, sum of 5 cycles each) (fold (ratio)); higher = stronger signal-on switching upon ATP binding; sequences stand for … in TCGTCGGCAGCGTCAGATGTGTATAAGAGACAGTTTTTTTTTTTTTTTTTTTTTTTTT…TC. The note with it: aptamer strand: ATP DNA aptamer (quencher-CACCTGGGGGAGTATTGCGGAGGAAGG + anchor), 100 nM annealed; ATP concentration: 500 uM. In outline: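 Imaging in selection buffer was followed by imaging after 15 min with 500 uM ATP at 22 °C, for Cy3-labelled switching-strand clusters annealed to 100 nM quencher-labelled ATP aptamer on a modified Illumina MiSeq flow-cell. Five of these buffer/ATP cycles ran, separated by NaOH stripping and re-annealing. The fluorescence ratio per cluster is summed target-cycle over summed buffer-cycle Cy3 intensity, averaged per switch-domain sequence; clusters outside 100-1000 RFU were removed.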
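Note: ATP exposure 15 min at 22 °C before imaging.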

With TGGGGGTCGG, the switch fluorescence ratio was found to be 1.03 ± 0.017.

TGGGGGTCTG: the switch fluorescence ratio stood at 1.01 ± 0.045. The same measure for TGGGGGTGG: 0.957 ± 0.046; for TGGGGGTGTC: 1.03 ± 0.024; for TGGGGTAATG: 0.995 ± 0.038. Under TGGGGTATAA stands 1.001 ± 0.0042; under TGGGGTATTT, 0.997 ± 0.04; under TGGGGTCCGG, 0.97 ± 0.079. The same measure for TGGGGTGGAG: 0.97 ± 0.032; for TGGGGTGGCG: 1.01 ± 0.067; for TGGGGTTAGA: 0.978 ± 0.029. Take TGGGGTTAGG: the switch fluorescence ratio was found to be 1 ± 0.024. Under TGGGGTTGCA stands 0.99 ± 0.015. Take TGGGGTTGGA: the switch fluorescence ratio was 1.01 ± 0.025. With TGGGGTTTGT, the switch fluorescence ratio worked out at 0.976 ± 0.03. TGGGTAACAT: the switch fluorescence ratio turned out to be 0.99 ± 0.031. Under TGGGTAGGAA stands 1.0335 ± 0.00064; under TGGGTAGGGT, 0.991 ± 0.036. For the sequence TGGGTAGGTG, the switch fluorescence ratio is 1.11 ± 0.028. With TGGGTAGTTT, the switch fluorescence ratio worked out at 1 ± 0.015.

Regarding TGGGTATGGG, the switch fluorescence ratio is 1.01 ± 0.037. Under TGGGTATTCG stands 0.967 ± 0.029; under TGGGTCAAAT, 1.02 ± 0.027. The same measure for TGGGTCACAA: 0.992 ± 0.024; for TGGGTCATCT: 1.02 ± 0.065. Under TGGGTCATGA stands 1.03 ± 0.034; under TGGGTCATTG, 0.973 ± 0.043. Take TGGGTCCAGT: the switch fluorescence ratio was 0.98 ± 0.011. The same measure for TGGGTCTAGG: 0.99 ± 0.043; for TGGGTCTGTT: 1.01 ± 0.046. On to TGGGTGGGGC, for which the switch fluorescence ratio was determined as 0.997 ± 0.018. Under TGGGTGGGGT stands 1.01 ± 0.026; under TGGGTGGTCA, 0.987 ± 0.06. Under TGGGTGTAGC stands 0.986 ± 0.011. The same measure for TGGGTGTATA: 1.01 ± 0.017; for TGGGTGTGGG: 1.02 ± 0.028; for TGGGTTAACT: 1.02 ± 0.041. As for TGGGTTAATC, the switch fluorescence ratio came out at 1.01 ± 0.052.

Take TGGGTTACTT: the switch fluorescence ratio was 0.995 ± 0.053.

For TGGGTTAGGG, the switch fluorescence ratio was 1.03 ± 0.044. For TGGGTTATCT, the switch fluorescence ratio came out at 0.972 ± 0.028. The same measure for TGGGTTCGCG: 0.988 ± 0.021; for TGGGTTCGGG: 0.9503 ± 0.0091; for TGGGTTGAGT: 0.987 ± 0.017. The same measure for TGGGTTGATA: 0.9958 ± 0.0069; for TGGGTTGGCC: 0.99 ± 0.043; for TGGGTTGGCG: 1.04 ± 0.028.

For TGGGTTGGCT, the switch fluorescence ratio worked out at 1.015 ± 0.0098. The same measure for TGGGTTGGTA: 1.02 ± 0.02. Under TGGGTTGGTG stands 1.03 ± 0.032. With TGGGTTGTGG, the switch fluorescence ratio stood at 1.01 ± 0.053. As for TGGGTTTAAC, the switch fluorescence ratio was determined as 1.08 ± 0.18. Under TGGGTTTCCT stands 0.987 ± 0.017; under TGGGTTTGGG, 0.984 ± 0.035; under TGGGTTTTAC, 1.01 ± 0.049. Under TGGGTTTTGC stands 0.994 ± 0.044; under TGGGTTTTTC, 0.968 ± 0.03; under TGGTAAAAAA, 0.959 ± 0.016. The same measure for TGGTAACAGG: 1.01 ± 0.021; for TGGTACAAAA: 1.04 ± 0.025. TGGTACAGGG: the switch fluorescence ratio was 1.03 ± 0.018.

Consider TGGTACGGAG, for which the switch fluorescence ratio stood at 1 ± 0.011.

On to TGGTAGACGG, for which the switch fluorescence ratio is 1.15 ± 0.26.

Take TGGTAGGCGT: the switch fluorescence ratio is 0.987 ± 0.031. Under TGGTAGGGGG stands 0.9867 ± 0.0046; under TGGTATAGGG, 1.01 ± 0.024; under TGGTATAGTT, 0.981 ± 0.049. The same measure for TGGTATTCGC: 1.01 ± 0.023; for TGGTATTGGT: 0.9655 ± 0.0041. As to TGGTCAAAGA, the switch fluorescence ratio is 0.986 ± 0.015. On to TGGTCAGGGG, for which the switch fluorescence ratio stood at 1.09 ± 0.056. Under TGGTCCGGGA stands 1.03 ± 0.029; under TGGTCGCAGG, 0.9899 ± 0.005; under TGGTCGCGAT, 1.53 ± 0.73. Under TGGTCGGGGG stands 0.997 ± 0.025. The same measure for TGGTCGTAGT: 0.994 ± 0.048; for TGGTCTAATG: 0.9791 ± 0.002.

For the sequence TGGTGCGGGC, the switch fluorescence ratio was determined as 1.05 ± 0.12.

Consider TGGTGCTGGG, for which the switch fluorescence ratio came out at 0.9733 ± 0.0066.
